Laboratory results: the supplement of paper PMC10567573

B1: BEX1 (parent)
chain: HSLRAVSTDPPHHDHHDEFCLMP

Assays:
[1] = variants of: B1; experiment: protein stability index of a GFP-peptide fusion (GPS, HEK-293T) (PSI 1-6); higher = more stable; settings: c terminus: native
[2] = variants of: B1; experiment: as above; settings: c terminus: native; remark: listed apart in the source

Variant	protein stability index [1]	protein stability index [2]
HSLRAVETDPPHHDHHDEFCLMP [S7E]	2.32	–
HSLRAVKTDPPHHDHHDEFCLMP [S7K]	2.62	–
HSLRAVATDPPHHDHHDEFCLMP [S7A]	1.29	–
HSLRAVPTDPPHHDHHDEFCLMP [S7P]	2.54	–
VSLRAVSTDPPHHDHHDEFCLMP [H1V]	1.77	–
HPLRAVSTDPPHHDHHDEFCLMP [S2P]	1.93	–
HGLRAVSTDPPHHDHHDEFCLMP [S2G]	2.21	–
HSLRAVSTDPPHHDHHDEFCLMC [P23C]	2.32	3.58
HSLRAVSTDPPHHDHHDEFCLMS [P23S]	2.77	3.56
HSLRAVSTDPPHHDHHDEFCLMN [P23N]	3.49	4.23
HSLRAVSTDPPHHDHHDEFCLMR [P23R]	2.45	3.16
HSLRAVSTDPPHHDHHDEFCLMF [P23F]	2.41	3.35
HSLRAVSTDPPHHDHHDEFCLMV [P23V]	2.19	3.07
HSLRAVSTDPPHHDHHDEFCLMG [P23G]	2.55	3.75
HSLRAVSTDPPHHDHHDEFCLMW [P23W]	2.19	2.97
HSLRAVSTDPPHHDHHDEFCLMA [P23A]	2.23	3.09
HSLRAVSTDPPHHDHHDEFCLMM [P23M]	2.12	3.17
HSLRAVSTDPPHHDHHDEFCLMI [P23I]	–	2.44
HSLRAVSTDPPHHDHHDEFCLME [P23E]	3.77	4.61
HSLRAVSTDPPHHDHHDEFCLMH [P23H]	3.59	3.81

Variant	protein stability index [1]	protein stability index [2]
HSLRAVSTDPPHHDHHDEFCLML [P23L]	2.66	3.24
HSLRAVSTDPPHHDHHDEFCLMT [P23T]	1.75	3.02
HSLRAVSTDPPHHDHHDEFCLMD [P23D]	4.48	4.52
HSLRAVSTDPPTHDHHDEFCLMP [H12T]	3.57	–
HSLRAVSTDPPHHTHHDEFCLMP [D14T]	3.55	–
HSLRAVSTDPPHHHHHDEFCLMP [D14H]	2.62	–
HSLRAVSTDPPHHDHPDEFCLMP [H16P]	2.78	–
HSLRAVSTDPPHHDHHDRFCLMP [E18R]	–	2.35
HSLRAVSTDPPHHDHHDMFCLMP [E18M]	2.24	2.15
HSLRAVSTDPPHHDHHDLFCLMP [E18L]	2.29	2.55
HSLRAVSTDPPHHDHHDWFCLMP [E18W]	–	2.61
HSLRAVSTDPPHHDHHDYFCLMP [E18Y]	2.08	2.22
HSLRAVSTDPPHHDHHDTFCLMP [E18T]	2.2	2.72
HSLRAVSTDPPHHDHHDNFCLMP [E18N]	2.84	2.44
HSLRAVSTDPPHHDHHDVFCLMP [E18V]	2.14	2.58
HSLRAVSTDPPHHDHHDSFCLMP [E18S]	2.32	2.19
HSLRAVSTDPPHHDHHDQFCLMP [E18Q]	1.93	2.7
HSLRAVSTDPPHPDHHDEFCLMP [H13P]	2.23	–
HSLRAVSPDPPHHDHHDEFCLMP [T8P]	2.14	–
HSLRPVSTDPPHHDHHDEFCLMP [A5P]	2.3	–

Variant	protein stability index [1]	protein stability index [2]
HSLRRVSTDPPHHDHHDEFCLMP [A5R]	1.68	–
HSLRYVSTDPPHHDHHDEFCLMP [A5Y]	2	–
HSLRAVSTDPPHHDHHDECCLMP [F19C]	–	2.12
HSLRAVSTDPPHHDHHDEMCLMP [F19M]	2.6	2.46
HSLRAVSTDPPHHDHHDENCLMP [F19N]	2.42	2.27
HSLRAVSTDPPHHDHHDERCLMP [F19R]	1.8	2.5
HSLRAVSTDPPHHDHHDEQCLMP [F19Q]	2.26	2.46
HSLRAVSTDPPHHDHHDEKCLMP [F19K]	1.59	2.87
HSLRAVSTDPPHHDHHDEPCLMP [F19P]	2.79	2.33
HSLRAVSTDPPHHDHHDELCLMP [F19L]	1.97	2.31
HSLRAVSTDPPHHDHHDEICLMP [F19I]	2.89	2.2
HSLRAVSTDPPHHDHHDEGCLMP [F19G]	–	2.25
HSLRAVSTDPPHHDHHDEECLMP [F19E]	2.82	2.57
HSLRAVSTDPPHHDHHDEACLMP [F19A]	3.6	2.57
HSLRAVSTDPPHHDHHDEVCLMP [F19V]	2.17	2.41
HSLRAVSTDPPHHDHHDETCLMP [F19T]	1.95	2.67
HSLRAVSTDPPHHDHHDEWCLMP [F19W]	2.39	2.52
HSLRAVSTDPPHHDHHDESCLMP [F19S]	3.38	2.47
HSLRAVSTDPPHHDHHDEYCLMP [F19Y]	2.33	2.54
